Reference: patent publication US5973110A, “Cytotoxic T-lymphocyte antigen as cysteine protease inhibitor” (Bayer Corporation, priority 1995, dated 1999)
Blank lines part the entries; values can stand above or below the molecule they belong to. No end group written: not given here.

Assays:
human liver Cathepsin L [1] = biological target: T1, human liver Cathepsin L (Homo sapiens, UniProt P07711)
human liver Cathepsin L [2] = biological target: T1, human liver Cathepsin L; remark: listed apart in the source
[3] = test system: cartilage proteoglycan degradation; conditions: at 100 uM concentrations; cited from earlier work
[4] = test system: articular cartilage explants from calf knee joints; test: Micro organ culture assay (MOCA): IL-1 induced proteoglycan release from articular cartilage explants; type: cell-based; conditions: IL-1 induced degradation; p117 10 uM (best concentration)
Text: The assay system used for testing the peptides for inhibitory activity of proteoglycan release is a micro organ culture assay (MOCA). Papain; cetyl pyridinium chloride and chondroitin sulfate type C was purchased from Sigma Chemical Co. (St. Louis, Mo.). Interleukin 1 alpha was purchased from Collaborative Research. ABCase, chrondroitinase, ABC lyase, and keratanase were obtained from ICI. Na ^35 SO4 was purchased from NEN.
Articular cartilage explants from calf knee joints were maintained in culture in DMEM medium containing 20 uCi/ml Na ^35 SO4 for 48 hours for the incorporation of label into newly synthesized proteoglycan (PG). The radiolabelled medium was then removed, the radiolabelled explants washed 3×30 ml cold DMEM and placed into a 96 well plate with or without IL-1 (Interleukin-1 alpha, 50 U/ml) and various concentrations of p117. The explants were incubated first for 24 hours in the presence of IL-1 in order to ensure initiation of IL-1 induced auto-catalysis prior to the addition of various metalloprotease inhibitors for an additional 72 hours.
The newly synthesized radiolabelled proteoglycans released during the cultivation period were subjected to enzymatic digestion with papain. […] The filter was dried and counted after addition of 10 mls of scintillation cocktail (scintillant).

human liver Cathepsin L [5] = biological target: T1, human liver Cathepsin L; test: Cathepsin L assay (fluorescence, Z-Phe-Arg-AMC hydrolysis); type: biochemical; parameters: from tissue; b54 says 'human kidney cell cathepsins'
Target sequence in this assay (P07711 114-288 limits assumed): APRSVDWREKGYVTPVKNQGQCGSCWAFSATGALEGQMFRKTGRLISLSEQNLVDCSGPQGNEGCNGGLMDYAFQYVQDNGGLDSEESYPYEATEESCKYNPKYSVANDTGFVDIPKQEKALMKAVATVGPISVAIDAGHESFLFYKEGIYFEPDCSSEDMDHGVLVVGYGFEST
Target sequence in this assay (P07711 292-333 limits assumed): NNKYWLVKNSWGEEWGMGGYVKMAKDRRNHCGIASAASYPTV
Description: A fluorescence based assay was set up according to Barrett and Kirschke (Barrett et al., 1981, Meth. in Enz., 80:535).
After an incubation period of 6 minutes at room temperature, 1500 μl of 0.1% Brij 35 was added. The substrate Z-Phe-Arg-AMC (AMC is aminomethyl-coumarin) was added at a final concentration of either 2.5 μM or 5.0 μM.
The fluorescence of the free aminomethyl-coumarin was measured in an SLM 4800s fluorimeter by excitation at 370 nm and emission at 432 nm over a six minute time period. […] In order to calculate the velocities, a linear least squares analysis was performed over the initial linear part of the data. […]
These peptides were tested for inhibition of Cathepsin L activity using the assays described previously. Briefly, Cathepsin L (19 pM final as determined by active site titration using E-64, Barret & Kirschke, 1991) was added to 750 uL of assay buffer consisting of 340 nM sodium acetate--60 mM acetic acid (pH 5.5), 4 mM disodium EDTA, and 8 mM DTT. […] The fluorescence of the free aminomethylcoumarin was measured in an SLM 4800s fluorimeter at excitation of 370 nm and an emission at 432 nm over a 6 minute time period. Fluorescence was converted to uM AMC released by using a standard curve generated by plotting uM AMC vs. fluorescence, and plotted vs. time. […]

human liver Cathepsin L [6] = biological target: T1, human liver Cathepsin L; remark: listed apart in the source
cartilage degradation = conditions: rabbits, IL-1 injected into joint capsule; cited from earlier work

Molecule: CC(C)C[C@H](NC(=O)[C@H]1O[C@@H]1C(=O)O)C(=O)NCCCCN=C(N)N (relative stereo) [E64, trans-epoxysuccinyl-L-leucylamido-(4-guanido)butane]
inhibition of IL-1 stimulated cartilage proteoglycan degradation (in words) [3]: did not work

Molecule: CC(C)CCNC(=O)[C@H](CC(C)C)NC(=O)[C@H]1O[C@@H]1C(=O)O [Ep475]
inhibition of IL-1 stimulated cartilage proteoglycan degradation (in words) [3]: did not work

B1: p089 (peptide)
peptide: ENKKKIEAHNADYERGKTSFC
inhibition of hydrolysis of Z-Phe-Arg-NMec(AMC) by Cathepsin L (fluorescence) (% inhibition at 10 uM) (human liver Cathepsin L [6]): 25

B3: p092 (peptide)
peptide: CRGEMAPDLPEYEDLG
i.c. 50 (human liver Cathepsin L [6]): 41 µM

B4: PN-1: large serine protease inhibitor PN-1 (43 KD) (protein, UniProt P07093 20-398, looked up)
Glia-derived nexin: SHFNPLSLEELGSNTGIQVFNQIVKSRPHDNIVISPHGIASVLGMLQLGADGRTKKQLAMVMRYGVNGVGKILKKINKAIVSKKNKDIVTVANAVFVKNASEIEVPFVTRNKDVFQCEVRNVNFEDPASACDSINAWVKNETRDMIDNLLSPDLIDGVLTRLVLVNAVYFKGLWKSRFQPENTKKRTFVAADGKSYQVPMLAQLSVFRCGSTSAPNDLWYNFIELPYHGESISMLIALPTESSTPLSAIIPHISTKTIDSWMSIMVPKRVQVILPKFTAVAQTDLKEPLKVLGITDMFDSSKANFAKITTGSENLHVSHILQKAKIEVSEDGTKASAATTAILIARSSPPWFIVDRPFLFFIRHNPTGAVLFMGQINKP
effect on IL-1 induced cartilage degradation (in words) (cartilage degradation): can ameliorate this degradation

Further lines, with some results ahead:

inhibition of hydrolysis of Z-Phe-Arg-AMC by Cathepsin L (fluorescence) (human liver Cathepsin L [1]): 60% | i.c. 50 in Cathepsin L Assay (human liver Cathepsin L [2]): 18.2 nM
Molecule: recombinant (murine) CTLA-2β, monomeric form

i.c. 50 in Cathepsin L Assay (human liver Cathepsin L [2]): 1.1 nM
Molecule: recombinant (murine) CTLA-2β, dimeric form

IC50 (human liver Cathepsin L [5]; Cathepsin L 19 pM, 5.0 uM Z-Phe-Arg-NMec(AMC), Dixon plot V-/V+ vs. peptide concentration, read-out: i.c. 50 (synthetic peptides, Cathepsin L)): 5.3 µM | inhibitory activity of the peptides (in words) (human liver Cathepsin L [5]; summary in Example 7): best activity
Molecule: YSLDEERHRRLMWEENKKKIEAH [p117]
% inhibition of proteoglycan release [4]: about 30%

i.c. 50 (human liver Cathepsin L [6]): 5.3 µM
B2: p117 (peptide)
peptide: YSLDEERHRRLMWEENKKKIEAH
